{"source": "patent US20190322724A1", "about": "(RESEARCH FOUNDATION FOR THE STATE UNIVERSITY OF NEW YORK, published 2019)", "binders": {"B1": {"name": "TIMP-2 Y62F/Y90F/Y165F-His6 (other)", "chain": "CSCSPVHPQQAFCNADVVIRAKAVSEKEVDSGNDIFGNPIKRIQYEIKQIKMFKGPEKDIEFIFTAPSSAVCGVSLDVGGKKEYLIAGKAEGDGKMHITLCDFIVPWDTLSTTQKKSLNHRYQMGCECKITRCPMIPCFISSPDECLWMDWVTEKNINGHQAKFFACIKRSDGSCAWYRGAAPPKQEFLDIEDPHHHHHH", "notes": "also called TF; triple F mutant"}}, "target": "T1, endogenous secreted MMP-2 in conditioned media of SYF and SYF+c-Src mouse embryonic fibroblast cells (mouse (endogenous protein of mouse …, UniProt P33434 30-662, limits assumed))", "T1 construct": "also called endogenous secreted MMP-2 in SYF CM", "T1 sequence (P33434 30-662 limits assumed)": "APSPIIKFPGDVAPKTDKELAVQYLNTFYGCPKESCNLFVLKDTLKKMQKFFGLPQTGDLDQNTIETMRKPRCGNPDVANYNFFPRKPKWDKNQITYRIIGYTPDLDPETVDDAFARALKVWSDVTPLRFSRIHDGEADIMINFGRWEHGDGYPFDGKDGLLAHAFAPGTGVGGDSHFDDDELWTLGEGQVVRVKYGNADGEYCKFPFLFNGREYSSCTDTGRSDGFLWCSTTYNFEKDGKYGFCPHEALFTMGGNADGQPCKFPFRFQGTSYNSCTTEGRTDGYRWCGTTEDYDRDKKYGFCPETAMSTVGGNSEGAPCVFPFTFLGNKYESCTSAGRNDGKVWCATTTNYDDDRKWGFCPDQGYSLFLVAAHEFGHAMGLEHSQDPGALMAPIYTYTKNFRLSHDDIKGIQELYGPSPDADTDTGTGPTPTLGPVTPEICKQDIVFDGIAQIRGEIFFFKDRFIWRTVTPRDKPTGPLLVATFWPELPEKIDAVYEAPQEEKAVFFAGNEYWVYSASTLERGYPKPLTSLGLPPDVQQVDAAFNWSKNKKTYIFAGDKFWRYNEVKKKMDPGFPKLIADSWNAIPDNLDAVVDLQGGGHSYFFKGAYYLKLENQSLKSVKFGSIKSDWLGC", "assay": "Ni-NTA pulldown from SYF CM, immunoblot", "procedure": "Pulldown and co-pulldown experiments were performed from CM and immunoblots were followed. […] Data represent three independent experiments.\nEqual amounts of isolated cell extract proteins were incubated with HisPur Ni-NTA Resin (ThermoScientific) for 2 hours at 4° C. Immunopellets were washed 4 times with fresh lysis buffer (20 mM HEPES pH 7.0, 100 mM NaCl, 1 mM MgCl2, 0.1% NP40, protease inhibitor cocktail (Roche) and PhosSTOP (Roche)). […] Pulldowns were also performed using conditioned media concentrated ˜10× using Amicon Ultra 10K centrifugal filters (Millipore) according to the manufacturer's protocol. HiPur Ni-NTA Resin was used to pulldown His6-tagged TIMP-2 from concentrated conditioned media. Briefly, HisPur Ni-NTA Resin was washed 3 times by vortexing resin with 0.1% NP40 lysis buffer and pipetting off supernatant. Concentrated conditioned media was combined with washed HisPur Ni-NTA Resin, and placed on rotator at 4° C. for 1 hour. Wash step was repeated 4 times with 1% NP40 buffer+150 mM NaCl to reduce non-specific binding of proteins to resin. 5× protein loading buffer was added to resin and boiled for 5 minutes."}
{"binder": "B1", "values": [{"measurement": "binding result", "value": "no binding"}]}
